Results as given in the DeepSol protein solubility set.

experiment: soluble on expression in E. coli; label from the status in PepcDB or PDB records

Row | Sequence | soluble on expression in E. coli
1 | MSQSRDLQGGKAFGLLKAQQEERLEGINKQFLDDPKYSNDEDLPSKLEAFKVKYMEFDLNGNGDIDIMSLKRMLEKLGVPKTHLELKRLIREVSSGSEETFSYSDFLRMMLGKRSAILRMILMYEEKNKEHKRPTGPPAKKAISELP | soluble
2 | MSQTITVKVKLLPTKEQIQLLEQSSYEYIKVINTLVSEMAEAKKSTKKSTKDVEANLPSAVKNQAIKDAKSVFSTKVKKSKYKVIPILKRPVCVWNNQNYSFDFTHISVPLMVNGKSTRLKVRALLTDKYNRNFNLLTHKLGTLRITKKSNKWIAQISVTIPTNEKTGTKILGVDLGLKVPAVAITDDEKVRFFGNGRQNKYMKRKFRSVRKKLGENKKLNAIRQLDDKEQRWMQDQDHKVSREIIDFATDNNISVIRLEQLTNIRQTARTSRKNEKNLHTWSFYRLAQFIEYKANLVGIKVEYVNPAYTSQTCPKCSEKNKAPDRKYKCRCGFEKHRDIVGAMNIRYATVIDGNSQSALEHHHHHH | soluble
3 | MSRFRSLLQASVNATKKALTWNVEEWVPPAEKHIFKFHSKEDLKKWHLYSDSEYGGLSSASLEIPDKGDGSDCTGVFSGNLSVDLSEGSKWNISRSGFCGMRSKKFDGFIDLDGYDAIALRIRGDGRCYISTIYTENWVNSPGQSEDNSWQAFVFAPKDSWYTAKIPLARYLPTWRGNVIDVEMEMNPGRVLGMSLSVNAEGGAVGAKSGAGDFRVEIDWIKALRLP | soluble
4 | MSRLEIYSPEGLRLDGRRWNELRRFESSINTHPHAADGSSYMEQGNNKIITLVKGPKEPRLKSQMDTSKALLNVSVNINKFSKFERSKSSHKNERRVLEIQTSLVRMFEKNVMLNIYPRTVIDIEIHVLEQDGGIMGSLINGITLALIDAGISMFDYISGISVGLYDTTPLLDTNSLEENAMSTVTLGVVGKSEKLSLLLVEDKIPLDRLENVLAIGIAGAHRVRDLMDEELRKHAQKRVSNASAR | soluble
5 | MSRLSSLLILVCIGALLVETFAAPDEPIIVRSKRQQCRCVKNPNGGLTCSCAKGPADGSSSSIGSGVQYDAPQSADIANQLTAMSQQTTGMSGARCGCIQIVIQGAPQYNCQCGDQSGNPLPTTTTMAPTTSSTTTTTTTTTQAPTTTSTTTTQSPVSYPQVPTQTQGSNGACNCIMISITSPQTAQYQCQCAQPQQQQQQQVQYDTYEYAPVQTTPTPMPTTQVPTTQAPTTQAPTMPTSSSPVQYADTAATQYPLTTTCVMYVNVPTTACSCLPQYDQCAQNVCCLKSKFRSYKKAEETQPSTLDVLMNVLQTIKTKLE | not soluble
6 | MSRLVLLISLVIVVASAAAPQCEVCKKVLDDVMAKVPAGDKSKPDAIGKVIREHCETTRNKENKFCFYIGALPESATSIMNEVTKPLSWSMPTEKVCLEKLKGKDAQICELKYDKPLDWKTIDLKKMRVKELKNILGEWGEVCKGCTEKAELIKRIEELKPKYVKEEL | not soluble
7 | MSRNQIYITQEQFDFFCQTQRPYEGFVEGVGYAFVHRGFVNPHANRPTNPFRQTKGYVLPFKQQLIEVSPDLIANSLKCNKTTDTPQEAPERDSRYLGERFYTKDGRYVYIGTMSGGWVCYDRSGNRILEQLPEIIVYSSKEPGRSIIGTGKD | not soluble
8 | MSRNVGVLGQMSEINDHLYLSGAGVLKPDKIKQRKINMIVNATTEEPSTYMQGVDTMKIRIEDHPYARLNEHFDVVADKIRNVKERGGKTLVHCMAGVSRSASLVMIYLVKHEHMTLRQAYHYVKAARPIIRPNVGFWKQMVDYEKRLRGTASVKMVQTPECDMPIPDVYADDIRRMQINREISRHSLPSAQSSASKQRAFSASTYRPSVSSASSLATSSLRRAYSPSSLPASSLALTTSYSLFSPAPTRKPRQSLFSMYSTSPRHNFFSAF | not soluble
9 | MSRQAKDDFLRHYTVSDPRTHPKGYTEYKVTAQFISKKDPEDVKEVVVWKRYSDFRKLHGDLAYTHRNLFRRLEEFPAFPRAQVFGRFEASVIEERRKGAEDLLRFTVHIPALNNSPQLKEFFRGGEVTRPLEVSRDLHILPPPLIPTPPPDDPRLSQLLPAERRGLEELEVPVDPPPSSPAQEALDLLFNCESTEEASGSPARGPLTEAELALFDPFSKEEGAAPSPTHVAELATMEVESARLDQEPWEPGGQEEEEDGEGGPTPAYLSQATELITQALRDEKAGAYAAALQGYRDGVHVLLQGVPSDPLPARQEGVKKKAAEYLKRAEEILRLHLSQLPP | soluble
10 | MSRRASKRPAPYPLLCEQKPEDLLVAPVEHKVYQDFEPKRPREFSPVMAQSLPPGEIDFQPSKIIFNAPYNENQESKIKLINTSALRIAYGINTYMKRLRVDTMCTPNCGVLDPSEEILLTISCDAFAFGQVDTTNDRITVEWTNTSEGSTKQFCRDWLDGDGMVRRKTLPIEYSSSPIAQTSSAPLLQASKHGMWLPIGFAASELYDYAKGEPLDRKTCEKNLEKLIKNDRDVDYYEWLNFAKRCRTQNQNLMEEMALGMAFTTAMANKQHRKISRKAEKITEPITTNKAFSIDSAEKFDRALTLPSRKWFMISDVVTDGDVSNWSTANLVTLVRALARTVFDKVAIADPHMMCYATSQNASTYIPIARDFFEGFAEYILGGFGEEQSRDLKFRVRKLVTDVMGNKLDRVRGRHNKMYGNEASEDATRWLREQLRKEDGELKESRLIFPNGSEMMCNYQVNEENPEGSIKSEIFNDEEEVEME | not soluble
11 | MSRVPEPSVFLVVDEAKRKARERGVGLIDLSIGSTDLPPPEAPLKALAEALNDPTTYGYCLKSCTLPFLEEAARWYEGRYGVGLDPRREALALIGSQEGLAHLLLALTEPEDLLLLPEVAYPSYFGAARVASLRTFLIPLREDGLADLKAVPEGVWREAKVLLLNYPNNPTGAVADWGYFEEALGLARKHGLWLIHDNPYVDQVYEGEAPSPLALPGAKERVVELFSLSKSYNLAGFRLGFALGSEEALARLERVKGVIDFNQYAGVLRMGVEALKTPKEVVRGYARVYRERALGMAEALKGVLSLLPPRATMYLWGRLPEGVDDLEFGLRLVERGVALAPGRGFGPGGKGFVRIALVRPLEELLEAAKRIREALD | soluble
12 | MSRYLITFDMDTNCLKDNYHGNNYTNAYSDIKTILARHGFENIQGSVYLGREGISEAHGTIAIQELTARFDWFYSCISNIKFYRLESDLNAQFIADGVYQAKQAFLQRVEQLRISLTEAGLSDEQINQVLEKQKFELESPNLKLN | not soluble
13 | MSSDEQKPEVNGYWTSVKNFSSSAATSINNATTSAWNSEFAASTSATVKDFSTSATKSIGEAATSAWNSETASTATSAISEAAKNARSWYDSSSEENEELEPSGHGFRGGIAALSRNASHYVISTVGRSSNILNIFDKTNKSSLGNPRWWIRFDRPHGNVDFHHININKAVTGLKDPHIPLTPTTAKTIGVLGKVAEKANDVAPLLTTAAMIYEAYRVGQEVHKDMNHGTTRNTIKTLAATSGTYSSGSIGAYAGSVIGTSIFPGLGTIFGAVVGGIVGGHFGGHYSHVATENALNHVKWDVVTFVCDGCDEEYTWKKYQEIEGTCCTRFNNKRQDSVDYWFKKLETNHDF | not soluble
14 | MSSEPTSSIESDNLRRSKRKKFKLDFVAAAHGNNQKKSRKDPHGQGDDDDDTFDDDLNHFEPLSVLTEQDVSMEMFEDDEEDTVSRRRTRRSTAHFQDYQEPDRWIENSGPHACHKCPSRYESKSSLANHTKMHLGEKRKFACELCDFSASTLKSLTHHNNIHQNFGVLSQQTSPVIPVASSADSTLNSSINSTGCQINAPPAPKLDEEAPIAVESVVVHHEDVAEFDTTPPPILEREDDGPPVLIREAPVRKSNRPMKPTQKAQKMTKQRERKSKTVESPKGSLPSSSASSVTPPPVRKDVEKPKIFVKTTKKNLKKTMKITKVRQRCPHCPFTTSTVTRLNRHSGGHKLKEGYICPSENCNFMCRKAGFLQKHYILHKGTLPWPPEYVKKGGAKMKRTFPESEEKKIEVTEKVQKMKKMHKRRANTVQVVAKAQLKSYIKVEVDDVIFKKCNIGECEFLTQTLTQLIVHKVKTHDTKTAFPQHRFLCLTCGHRAKSYAALRTHKLIEHTSTHKRFHRTYYLKECVGDKFFVKYNLSKVQEEVKEEPKEADGDESGDESFDSMCPASDVHPETLAAIEMKDVFFCCNMCPYKAPTMNRCQRHYDKHFKNDEFKCQYCSWSSRSKEVIVNHEKLHPTVVVANTNEAPVVKNEIEAKVEVLSKTVSSPVECTEESSLSKSIQLWCQREKLRHPELDEQFTRKMIDGVKGFQCTDCPYTSKYRGDMRSHKKRHDIEQLYRCVQCTYTTNRPVSLKDHLKQHAIVNMSIADIKSRRVVVNQGVKIGMRRGVGKDKIYCCDKCPYVTLALGCLWRHHRNHRDTAKINICSNCSYSSIDQRKMEEHTIIHLGLGLNEAVPFVKRVDQKGRPVSSLTDLNSEKMNERKSTKRKMLDKVEKMEVGEDEEDDEESVDKGTDDGDYKQRPEKKRKQSSEEPASDPELFGSSSQPTRQLSERATRNRINYSLLSKNGSGKPTPSTSSANLEKLAGSSGGASSESPEPDESVEVSHWKIRTFLRSEYGVKESLKCPDCPYKSSEPDVLEKHRYYHMTKTTPRPYACSDCTFNTYTPTALLQHLKLHSEGVYFDPMVKKHMKHRKGDSIPPGVKGYYCKNCSFKTSIHRNFIEHSAYHRQQLINRINITLKRQPPRIEYQRPKLKHQFVAKNAKYCKKCTFKCVSQSNFIEHLDRHGWNQLYKCYSCDYSDNTKSVVDFHQLNHHIVKDQTLHSICQSAKFRLENGVIQIPETEKSKPTPDEFVSKTRGLLKCPSCEYFCHVSSELAFHMSVHHLTEPNARETISYLHMGLVPPKATVTTV | not soluble
15 | MSSGKVIVYGGKGALGSAILEFFKKNGYTVLNIDLSANDQADSNILVDGNKNWTEQEQSILEQTASSLQGSQVDGVFCVAGGWAGGSASSKDFVKNADLMIKQSVWSSAIAAKLATTHLKPGGLLQLTGAAAAMGPTPSMIGYGMAKAAVHHLTSSLAAKDSGLPDNSAVLTIMPVTLDTPMNRKWMPNADHSSWTPLSFISEHLLKWTTETSSRPSSGALLKITTENGTSTITPQ | soluble
16 | MSSGVMVDPDVQTSFQKLSEGRKEYRYIIFKIDENKVIVEAAVTQDQLGITGDDYDDSSKAAFDKFVEDVKSRTDNLTDCRYAVFDFKFTCSRVGAGTSKMDKIIFLQICPDGASIKKKMVYASSAAAIKTSLGTGKILQFQVSDESEMSHKELLNKLGEKYGDH | not soluble
17 | MSSLGNQSEKNSNNKFSDNVPLAQHEIWKEKYESLVTEHENLVKEHETLIKTLELIEKHEITLEDLVKKKQREALVGKEEIEKFDKEIGERKKMQEMLDKDLEYLKSCEETVMNGMSSGPSGARVADKRNVNKFESQEGNFKCFLICV | not soluble
18 | MSSLLTIALAVTISCVNTVEDQYFGGQNAEPVAKVEQKATSNNTLADLEKDPLYPYIDKQNKLVEKNGIQYIENEENILVLANKDYSLQPTYTPPDLVRPNVTFSFGNEQVEKAQLRKEAGTALEEMFKAANQDGKKLFAVSGYRSYKRQQEVFQAEVNSKGDKKAREAVAYPGTSEHQTGLAMDISSENQSYELTEAFGTTPEGKWLEENAHNYGFILRYMKGREDITKYQYESWHYRYVGKDAATIIYKNNWTLEEFFEHVKALQKKVDAAK | not soluble
19 | MSSNECFKCGRSGHWARECPTGGGRGRGMRSRGRGFQFVSSSLPDICYRCGESGHLAKDCDLQEDACYNCGRGGHIAKDCKEPKREREQCCYNCGKPGHLARDCDHADEQKCYSCGEFGHIQKDCTKVKCYRCGETGHVAINCSKTSEVNCYRCGESGHLARECTIEATA | not soluble
20 | MSSNHPLDQLYRQVIMDHYKNPRNRGVLEGTNVDVNMNNPTCGDRIHLTMKVEDGKVADVKFEGEGCSISMSSASMMTQAIKGKTVEEALRLAHIFSDMIQGKEYDDSVDLGDIEALQGVSKFPARIKCATLAWKALEKGLHNHEHEGR | not soluble
